Read-outs that look alike come from different tables or passages of the source.
Key:
[1] = test system: H1299 lung carcinoma cells; settings: added to cells infected with ALAS construct; cited from earlier work
[2] = Pre-steady-state single turnover reactions, rapid scanning stopped-flow (quinonoid intermediate, 510 nm); assay type: biochemical; settings: 20° C.
Procedure: FIGS. 5(A) through (D) are graphs showing the single turnover reactions of isolated hyperactive ALAS variants. The pre-steady state kinetic parameters were determined under single turnover conditions (60 μM enzyme-glycine complex, 10 μM succinyl-CoA) at 20° C. by monitoring absorbance changes at 510 nm. The variant catalyzed reactions A4, D8, G7, A8, (panels A-D, respectively) resemble that of the wild-type enzyme in that quinonoid lifetime is observed as a single step of quinonoid intermediate formation and 2-step process of decay (Hunter, & Ferreira. Pre-steady-state reaction of 5-aminolevulinate synthase. Evidence for a rate-determining product release J Biol. Chem. 1999 Apr. 30; 274(18):12222-8).
FIGS. 6(A) through (D) are graphs showing the single turnover reactions of isolated hyperactive ALAS variants. The pre-steady state kinetic parameters were determined under single turnover conditions (60 μM enzyme-glycine complex, 10 μM succinyl-CoA) at 20° C. by monitoring absorbance changes at 510 nm. […]
FIG. 7 is a graph showing the SS2 variant catalyzed reaction. Equilibrium and pre-steady state kinetic parameters for the SS2 variant were determined at 20° C. by monitoring changes in absorbance at 510 nm associated with quinonoid intermediate lifetime, under single-turnover conditions.
ALAS steady-state activity of the ALAS active site loop variants was determined at 20° C. using a continuous spectrophotometric assay as described previously for wild-type ALAS (Hunter & Ferreira. A continuous spectrophotometric assay for 5-aminolevulinate synthase that utilizes substrate cycling. Anal Biochem. 1995 Apr. 10; 226(2):221-4). […] Single turnover data were evaluated using either a two- or three-kinetic-step mechanism as described by Equations 1 and 2, respectively (Hunter, & Ferreira. Pre-steady-state reaction of 5-aminolevulinate synthase. Evidence for a rate-determining product release J Biol Chem. 1999 Apr. 30; 274(18):12222-8). […]

[3] = 37 C, pH 7.2; cited from earlier work
[4] = Temperature dependence of steady-state kinetics, Arrhenius plot, thermodynamic activation parameters; assay type: biochemical
Procedure: FIG. 9 is a graph showing the thermal dependence of the SS2 variant-catalyzed reaction. kcat values were calculated by performing steady-state kinetics at different temperatures. (A) an Arrhenius plot depicting the difference between the wild-type ([…]) and the SS2 variant-catalyzed (◯) reactions at 288, 293, 298, 303 and 308K. Error bars are plotted over and partially obscured by the data points.
(§1) The ALAS steady-state kinetic parameters of wild-type ALAS and the SS2 variant activity assays were also determined at 15, 25, and 35° C.
The natural log of the calculated values for the turnover numbers (lnkcat) were plotted vs. the inverse of temperature and the data were fit to the Arrhenius equation.
where Ea is the activation energy, R is the universal gas constant, T is the absolute temperature, and A is the frequency factor. The determined activation energies were then used to calculate the thermodynamic activation parameters, ΔH, ΔG and ΔS, as previously described (Hunter, et al. Transient kinetic studies support refinements to the chemical and kinetic mechanisms of aminolevulinate synthase. J Biol. Chem. 2007 Aug. 10; 282(32):23025-35. Epub 2007 May 7). The turnover numbers for each enzyme were used to construct an Arrhenius plot, from which the thermodynamic activation parameters were derived seen in Table 4.

[5] = ALAS steady-state activity, continuous spectrophotometric assay; assay type: biochemical; settings: 20° C.
Procedure: ALAS steady-state activity of the ALAS active site loop variants was determined at 20° C. using a continuous spectrophotometric assay as described previously for wild-type ALAS (Hunter & Ferreira. A continuous spectrophotometric assay for 5-aminolevulinate synthase that utilizes substrate cycling. Anal Biochem. 1995 Apr. 10; 226(2):221-4). Rapid scanning stopped-flow measurements were performed using a model RSM-100 stopped-flow spectrophotometer (OLIS, Inc.). This instrument has a dead-time of approximately 2-ms and an observation chamber path length of 4 mm Spectral scans covering a wavelength range of 300-570 nm were collected at a rate of 1000 scans/s and then averaged to 62 scans/s in order to reduce the time course data files to an appropriate size for global fit analyses. The temperature of the syringes and the stopped-flow cell compartment was maintained at 20° C. by an external water bath. Pre-steady-state kinetic reactions of the variant enzymes were examined under single turnover conditions, using final concentrations of 60 μM enzyme, 120 mM glycine and 10 μM succinyl-CoA in 100 mM HEPES, pH 7.5 and 10% (v/v) glycerol as previously described (Hunter, & Ferreira. Pre-steady-state reaction of 5-aminolevulinate synthase. Evidence for a rate-determining product release J Biol Chem. 1999 Apr. 30; 274(18):12222-8). Single turnover data were evaluated using either a two- or three-kinetic-step mechanism as described by Equations 1 and 2, respectively (Hunter, & Ferreira. Pre-steady-state reaction of 5-aminolevulinate synthase. Evidence for a rate-determining product release J Biol Chem. 1999 Apr. 30; 274(18):12222-8).
as §1

Molecule | Potentiation of photosensitivity [1] | Qf, rate for quinonoid intermediate formation ([2]; 60 μM enzyme, 120 mM glycine, 10 μM succinyl-CoA) [s⁻¹] | Qd1, rate for first step of quinonoid intermediate decay [2] [s⁻¹] | Qd2, rate for second step of quinonoid intermediate decay [2] [s⁻¹] | Catalytic efficiency for the substrate glycine [3] [M⁻¹ s⁻¹] | ΔG^‡ (30° C.) ([4]; 30° C.) [kcal/mol] | ΔH^‡ (30° C.) ([4]; 30° C.) [kcal/mol] | ΔS^‡ (30° C.) ([4]; 30° C.) [cal/mol · K] | Slope/(K) of Arrhenius plot ([4]; 288-308 K) [K] | Ea, activation energy ([4]; 288-308 K, listed as WTALAS) [kcal/mol] | Q10 for the catalytic rate constant ([4]; steady-state temperature dependence) | Kcat [5] [s⁻¹] | Km ([5]; read-out: Km^Gly) [mM] | Km ([5]; read-out: Km^SCoA) [mM]
CC(=O)N(O)CCCCCNC(=O)CCC(=O)N(O)CCCCCNC(=O)CCC(=O)N(O)CCCCCN [desferrioxamine] | two-fold |  |  |  |  |  |  |  |  |  |  |  |  | 
WT: wild-type murine erythroid 5-aminolevulinate synthase (mALAS-2) (protein, UniProt P08680 50-587, looked up) 5-aminolevulinate synthase, …: QIHLKATKAGGDSPSWAKSHCPFMLSELQDRKSKIVQRAAPEVQEDVKTFKTDLLSTMDSTTRSHSFPSFQEPEQTEGAVPHLIQNNMTGSQAFGYDQFFRDKIMEKKQDHTYRVFKTVNRWANAYPFAQHFSEASMASKDVSVWCSNDYLGISRHPRVLQAIEETLKNHGAGAGGTRNISGTSKFHVELEQELAELHQKDSALLFSSCFVANDSTLFTLAKLLPGCEIYSDAGNHASMIQGIRNSGAAKFVFRHNDPGHLKKLLEKSDPKTPKIVAFETVHSMDGAICPLEELCDVAHQYGALTFVDEVHAVGLYGARGAGIGERDGIMHKLDIISGTLGKAFGCVGGYIASTRDLVDMVRSYAAGFIFTTSLPPMVLSGALESVRLLKGEEGQALRRAHQRNVKHMRQLLMDRGFPVIPCPSHIIPIRVGNAALNSKICDLLLSKHSIYVQAINYPTVPRGEELLRLAPSPHHSPQMMENFVEKLLLAWTEVGLPLQDVSVAACNFCHRPVHFELMSEWERSYFGNMGPQYVTTYA |  | 0.8 | 0.53 | 0.01 | 56.7 | 19 | 48 | −95 | −24000 | 48 | seven | 0.02 ± 0.01 | 14 ± 2 | 0.011 ± 0.001
